This note sets out measurements from patent publication US20250382355A1.

B1: 11F8 VHH-Fc (Fc fusion)
chain: QVQLVESGGGLVQAGGSLRLSCAASGRTVGYYAVGWFRQAPGKERDFVAAISWSGRNTNYADSVTGRFTIFRDNAKNTVDLQMNSLKPEDTAVYYCAADYWNYGSGSEVPNNYDTWGQGTQVTVSS
B2: 10B8 VHH-Fc (Fc fusion)
chain: QVQLVESGGGLVQPGGSLRLSCAASGITLDYYAIAWFRQAPGKEREGVSCFCSSDGDIRYADSVKGRFTISRDNAKNTVYLQMNSLKPEDTAVYYCATERVYSSTWFFHRYSELDFGSWGRGTQVTVSS
B3: 8E9 VHH-Fc (Fc fusion)
chain: QVQLVESGGGLVEAGGSLRLSCVASGSSSSINAMGWYRQAPGKQRELVASISHDGETKYANSVKGRFTISRGNAKNTIYLQMNSLKPEDTAVYYCVGDVAWVVVAGEYDYWGQGTQVTVSS
B4: 19E10 VHH-Fc (Fc fusion)
chain: QVQLVESGGGLVQPGGSLRLSCVASGSTISINSMGWYRQAPGKAREMVATITNDGPIKYADPVKGRFTISRDNPKNTVYLQMNSLKPEDTAVYYCVADRAYWLAGEWEYWGQGTQVTVSS
B5: 7A9 VHH-Fc (Fc fusion)
chain: QVQLVESGGGLVQAGGSLRLSCSASGGTASRSAMGWFRQAPGKEREFVAGISRRNSGSTYVADSYEDSVKGRFTISRDNAKNTIYLQMNSLKPEDTAVYYCAAEPTLGWYVPRRSVEYEYWGQGTQVTVSS
B6: 9B2 VHH-Fc (Fc fusion)
chain: QVQLVESGGGLVQPGGSLRLSCAASGFTLDNYAIGWFRQAPGKEREGVSCISSSDGDTQYADSVKGRFTISRDNAKNTVYLQMNSLKPEDTAVYYCAVEKVYARSWFFHLCSELDFGSWGQGTQVTVSS
B7: 3D4 VHH-Fc (Fc fusion)
chain: QVQLVESGGGLVQPGGSLRLSCAASGFTLDLNSIGWFRQAPGKEREGVSCISPSGSRMHYADSVKGRFTISRDNAKNTVYLQMNSLKPEDTAVYYCATGSPSYHYCSMYGLEYDSWGQGTQVTVPS
B8: 19C10 VHH-Fc (Fc fusion)
chain: QVQLVESGGGLVQPGGSLRLSCAASGFTLDLNSIGWFRQAPGKEREGVSCISPSASSTHYADSVKGRFTISRDNAKNTVYLQMNSLKPEDTAVYYCATGTPSYHYCSMYGLEYDDWGQGTQVTVSS
B9: 19B8 VHH-Fc (Fc fusion)
chain: QVQLVESGGGLVQAGGSLRLSCAASGRTFTNYAMGWFRQAPGKEREFVAAISWSGGGTNYADSVKGRFTISRDNAKNTVYLQMNSPKPEDTAVYYCATTLGYYGSSSRLYEYWGQGTQVTVSS
B10: 15H1 VHH-Fc (Fc fusion)
chain: QVQLVESGGGLAQAGGSLRLSCASSGLIFSGSAMGWFRQAPGKEREFVGVISWNGRTTYADSVKGRFTISRDDAVNMVWLQMNNLKPEDTAVYYCAADHLNYGSGDVNPRTYDYWGQGTQVTVSS
B11: 13C8 VHH-Fc (Fc fusion)
chain: QVQLVESGGGLVQAGGSLRLSCAASGRTVNKYMTGWFRQTPGKEREFVASIDWSSTTTHYANSVKGRFTISRDKVKNTVYLQMNGLKPEDTAVYYCAAHQDSSYGYTILPIDYDSWGQGTQVTVSS
B12: 1E4 VHH-Fc (Fc fusion)
chain: QVLLVESGGGLVQAGGLLRLACSASGRTFTENVMGWFRQAPGKEREFVAAINWNTGSTYYSDSRKGRFTISKDNAKNTMFLQINNLKPEDTAVYYCGGTSSSYYYIGEFIPDYWGQGTQVTVSS
B13: 15H7 VHH-Fc (Fc fusion)
chain: QVQLVESGGRLVQAGGSLRLSCAAPGRTFRNLTLGWFRQAPGKEREFVASTSWPDDEMTYYTDSVKGRFTISRDNAKNTVYLQMNSLKPEDTAVYYCAAASWSGRSTLSYDYDYWGQGTQVTVST
B14: 5D7 VHH-Fc (Fc fusion)
chain: QVQLVESGGGLVQAGGSLRLSCAASGRTGSRYIMGWFRQAPGKEREFVAAINWRGDSTYYADSVKGRFTIARDNAKNTAYLQMNSLKPEDTAVYYCVADRGESYYYTRSTEYTYWGQGTQVTVSS
B15: 5A6 VHH-Fc (Fc fusion)
chain: QVQLVESGGGLAQAGGSLRLSCATSGLTFSMSAMGWFRQAPGNEREFVGVINWNGGSSRYADSVRGRFTISRDNAKNTVYLQMNSLKPEDTGVYYCAADALNIGTGEVNPRLYDYWGQGTQVMVSS
B16: 1A11 VHH-Fc (Fc fusion)
chain: QVQLVESGGGLVQAGGSLRLSCEVSGSIYSINSMGWYRQAPGKQRELVAGIVSDGRINYADSVKGRFTISRAKNTVYLQMNSLKPEDTAVYYCAADRAFVYAGDYDYLGQGTQVTVSS

The target of this assay is SARS-CoV-2 WT spike on rVSV-deltaG-Luc pseudovirus (SARS-CoV-2), P0DTC2. Kind of assay: cell-based or functional assay.
In turn, B1 showed a pseudovirus neutralization IC50 of 1.07 nM.

For the molecule B2, the pseudovirus neutralization IC50 was 0.68 nM.

On to B3, for which the pseudovirus neutralization IC50 was 12.4 nM.

With B4, the pseudovirus neutralization IC50 was found to be 1.53 nM.

Molecule B5 returned a pseudovirus neutralization IC50 of 110 nM.

In turn, B6 displayed a pseudovirus neutralization IC50 of 1.93 nM.

In turn, B7 displayed a pseudovirus neutralization IC50 of 1.22 nM.

The molecule B8 returned a pseudovirus neutralization IC50 of 1.49 nM.

As to B9, the pseudovirus neutralization IC50 amounted to 53.5 nM.

In turn, B10 showed a pseudovirus neutralization IC50 of 5.04 nM.

B11 displayed a pseudovirus neutralization IC50 of 6.69 nM.

Take B12: the pseudovirus neutralization IC50 worked out at 0.31 nM.

B13: the pseudovirus neutralization IC50 was determined as 1.33 nM.

Turning to B14, the pseudovirus neutralization IC50 amounted to 6.52 nM.

For B15, the pseudovirus neutralization IC50 came out at 8.57 nM.

B16 gave a pseudovirus neutralization IC50 of 0.57 nM.
